Laboratory results published in paper PMC3656483 (Cell, 2013).

Assays:
^CFPCul1–Rbx1 = ^CFPCul1–Rbx1 (UniProt Q13616 1-776; P62877 1-108); assay: FRET or BRET
GST-Rbx1–Cul1 = GST-Rbx1–Cul1 (UniProt P62877 1-108; Q13616 1-776); assay: pull-down
Chain of GST-Rbx1–Cul1 (P62877 whole entry, chain 1 of 2): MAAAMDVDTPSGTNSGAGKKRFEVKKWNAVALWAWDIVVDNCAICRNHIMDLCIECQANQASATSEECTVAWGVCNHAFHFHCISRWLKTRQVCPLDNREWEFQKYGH
Chain of GST-Rbx1–Cul1 (Q13616 whole entry, chain 2 of 2): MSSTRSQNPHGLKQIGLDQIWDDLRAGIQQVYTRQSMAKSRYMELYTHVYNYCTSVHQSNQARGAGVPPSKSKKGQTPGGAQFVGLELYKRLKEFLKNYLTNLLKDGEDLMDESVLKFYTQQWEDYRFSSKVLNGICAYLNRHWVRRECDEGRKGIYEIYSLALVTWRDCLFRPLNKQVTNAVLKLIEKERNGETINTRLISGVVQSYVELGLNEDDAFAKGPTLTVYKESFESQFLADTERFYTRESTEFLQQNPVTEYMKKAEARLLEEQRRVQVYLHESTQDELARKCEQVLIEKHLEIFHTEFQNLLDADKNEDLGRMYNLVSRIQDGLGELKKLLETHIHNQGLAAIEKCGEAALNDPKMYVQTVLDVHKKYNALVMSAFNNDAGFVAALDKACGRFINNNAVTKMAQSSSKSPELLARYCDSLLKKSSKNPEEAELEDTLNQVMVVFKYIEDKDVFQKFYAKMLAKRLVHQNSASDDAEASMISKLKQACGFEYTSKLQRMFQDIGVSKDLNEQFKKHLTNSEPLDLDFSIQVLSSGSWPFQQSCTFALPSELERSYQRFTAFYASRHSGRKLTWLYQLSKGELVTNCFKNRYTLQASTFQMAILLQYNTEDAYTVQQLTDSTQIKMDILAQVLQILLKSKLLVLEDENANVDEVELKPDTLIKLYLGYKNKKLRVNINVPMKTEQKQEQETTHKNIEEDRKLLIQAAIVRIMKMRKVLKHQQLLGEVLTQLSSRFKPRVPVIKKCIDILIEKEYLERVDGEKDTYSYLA

Chain of ^CFPCul1–Rbx1 (Q13616 whole entry, chain 1 of 2): as the sequence (Q13616 whole entry, chain 2 of 2) above
Chain of ^CFPCul1–Rbx1 (P62877 whole entry, chain 2 of 2): as the sequence (P62877 whole entry, chain 1 of 2) above

Kd (^CFPCul1–Rbx1)	koff (GST-Rbx1–Cul1)	Binder
≤ 53 nM	–	Cullin-associated and neddylation-dissociated protein 1 (Cand1) (natural protein, UniProt Q86VP6 1-1230, looked up) MASASYHISNLLEKMTSSDKDFRFMATNDLMTELQKDSIKLDDDSERKVVKMILKLLEDKNGEVQNLAVKCLGPLVSKVKEYQVETIVDTLCTNMLSDKEQLRDISSIGLKTVIGELPPASSGSALAANVCKKITGRLTSAIAKQEDVSVQLEALDIMADMLSRQGGLLVNFHPSILTCLLPQLTSPRLAVRKRTIIALGHLVMSCGNIVFVDLIEHLLSELSKNDSMSTTRTYIQCIAAISRQAGHRIGEYLEKIIPLVVKFCNVDDDELREYCIQAFESFVRRCPKEVYPHVSTIINICLKYLTYDPNYNYDDEDEDENAMDADGGDDDDQGSDDEYSDDDDMSWKVRRAAAKCLDAVVSTRHEMLPEFYKTVSPALISRFKEREENVKADVFHAYLSLLKQTRPVQSWLCDPDAMEQGETPLTMLQSQVPNIVKALHKQMKEKSVKTRQCCFNMLTELVNVLPGALTQHIPVLVPGIIFSLNDKSSSSNLKIDALSCLYVILCNHSPQVFHPHVQALVPPVVACVGDPFYKITSEALLVTQQLVKVIRPLDQPSSFDATPYIKDLFTCTIKRLKAADIDQEVKERAISCMGQIICNLGDNLGSDLPNTLQIFLERLKNEITRLTTVKALTLIAGSPLKIDLRPVLGEGVPILASFLRKNQRALKLGTLSALDILIKNYSDSLTAAMIDAVLDELPPLISESDMHVSQMAISFLTTLAKVYPSSLSKISGSILNELIGLVRSPLLQGGALSAMLDFFQALVVTGTNNLGYMDLLRMLTGPVYSQSTALTHKQSYYSIAKCVAALTRACPKEGPAVVGQFIQDVKNSRSTDSIRLLALLSLGEVGHHIDLSGQLELKSVILEAFSSPSEEVKSAASYALGSISVGNLPEYLPFVLQEITSQPKRQYLLLHSLKEIISSASVVGLKPYVENIWALLLKHCECAEEGTRNVVAECLGKLTLIDPETLLPRLKGYLISGSSYARSSVVTAVKFTISDHPQPIDPLLKNCIGDFLKTLEDPDLNVRRVALVTFNSAAHNKPSLIRDLLDTVLPHLYNETKVRKELIREVEMGPFKHTVDDGLDIRKAAFECMYTLLDSCLDRLDIFEFLNHVEDGLKDHYDIKMLTFLMLVRLSTLCPSAVLQRLDRLVEPLRATCTTKVKANSVKQEFEKQDELKRSAMRAVAALLTIPEAEKSPLMSEFQSQISSNPELAAIFESIQKDSSSTNLESMDTS
–	1.2e-05 s⁻¹	Cand1^TAMRA (natural protein, UniProt Q86VP6 1-1230, looked up, TAMRA (site not stated)) MASASYHISNLLEKMTSSDKDFRFMATNDLMTELQKDSIKLDDDSERKVVKMILKLLEDKNGEVQNLAVKCLGPLVSKVKEYQVETIVDTLCTNMLSDKEQLRDISSIGLKTVIGELPPASSGSALAANVCKKITGRLTSAIAKQEDVSVQLEALDIMADMLSRQGGLLVNFHPSILTCLLPQLTSPRLAVRKRTIIALGHLVMSCGNIVFVDLIEHLLSELSKNDSMSTTRTYIQCIAAISRQAGHRIGEYLEKIIPLVVKFCNVDDDELREYCIQAFESFVRRCPKEVYPHVSTIINICLKYLTYDPNYNYDDEDEDENAMDADGGDDDDQGSDDEYSDDDDMSWKVRRAAAKCLDAVVSTRHEMLPEFYKTVSPALISRFKEREENVKADVFHAYLSLLKQTRPVQSWLCDPDAMEQGETPLTMLQSQVPNIVKALHKQMKEKSVKTRQCCFNMLTELVNVLPGALTQHIPVLVPGIIFSLNDKSSSSNLKIDALSCLYVILCNHSPQVFHPHVQALVPPVVACVGDPFYKITSEALLVTQQLVKVIRPLDQPSSFDATPYIKDLFTCTIKRLKAADIDQEVKERAISCMGQIICNLGDNLGSDLPNTLQIFLERLKNEITRLTTVKALTLIAGSPLKIDLRPVLGEGVPILASFLRKNQRALKLGTLSALDILIKNYSDSLTAAMIDAVLDELPPLISESDMHVSQMAISFLTTLAKVYPSSLSKISGSILNELIGLVRSPLLQGGALSAMLDFFQALVVTGTNNLGYMDLLRMLTGPVYSQSTALTHKQSYYSIAKCVAALTRACPKEGPAVVGQFIQDVKNSRSTDSIRLLALLSLGEVGHHIDLSGQLELKSVILEAFSSPSEEVKSAASYALGSISVGNLPEYLPFVLQEITSQPKRQYLLLHSLKEIISSASVVGLKPYVENIWALLLKHCECAEEGTRNVVAECLGKLTLIDPETLLPRLKGYLISGSSYARSSVVTAVKFTISDHPQPIDPLLKNCIGDFLKTLEDPDLNVRRVALVTFNSAAHNKPSLIRDLLDTVLPHLYNETKVRKELIREVEMGPFKHTVDDGLDIRKAAFECMYTLLDSCLDRLDIFEFLNHVEDGLKDHYDIKMLTFLMLVRLSTLCPSAVLQRLDRLVEPLRATCTTKVKANSVKQEFEKQDELKRSAMRAVAALLTIPEAEKSPLMSEFQSQISSNPELAAIFESIQKDSSSTNLESMDTS
